B1: PTPRD (parent)
chain: LTKLREMGREKCHQYWPAERSARY

Variants of: B1
Experiment: protein stability index of a GFP-peptide fusion (GPS, HEK-293T) (PSI 1-6); higher = more stable
Conditions: c terminus: a fixed tail appended
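Also: lentivirally expressed fusions sorted by FACS into six bins by GFP to DsRed ratio, PSI derived from sequencing read proportions per bin multiplied by bin number.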

Which protein stability index does the source give for LTKEREMGREKCHQYWPAERSARY [L4E] here?
Its protein stability index is 3.55.

For LTKYREMGREKCHQYWPAERSARY [L4Y], which protein stability index is on record?
The protein stability index was 2.63.

With LTKSREMGREKCHQYWPAERSARY [L4S] as the variant, how does the protein stability index read?
The protein stability index was 2.99.

With LTKHREMGREKCHQYWPAERSARY [L4H] as the variant, how does the protein stability index read?
Its protein stability index is 2.84.

For LTKRREMGREKCHQYWPAERSARY [L4R], which protein stability index is on record?
The protein stability index was 2.92.

Which protein stability index does the source give for LTKAREMGREKCHQYWPAERSARY [L4A] here?
Its protein stability index is 2.72.

With LTKDREMGREKCHQYWPAERSARY [L4D] as the variant, how does the protein stability index read?
The protein stability index was 3.29.

For LTKPREMGREKCHQYWPAERSARY [L4P], which protein stability index is on record?
The protein stability index was 2.88.

Which protein stability index does the source give for LTKFREMGREKCHQYWPAERSARY [L4F] here?
Its protein stability index is 2.63.

Which protein stability index does the source give for LTKKREMGREKCHQYWPAERSARY [L4K] here?
Its protein stability index is 2.8.

Which protein stability index does the source give for LTKGREMGREKCHQYWPAERSARY [L4G] here?
Its protein stability index is 3.55.

Which protein stability index does the source give for LTKQREMGREKCHQYWPAERSARY [L4Q] here?
The protein stability index was 3.1.

Which protein stability index does the source give for LTKVREMGREKCHQYWPAERSARY [L4V] here?
Its protein stability index is 2.48.

For LTKNREMGREKCHQYWPAERSARY [L4N], which protein stability index is on record?
The protein stability index was 3.04.

For LTKIREMGREKCHQYWPAERSARY [L4I], which protein stability index is on record?
The protein stability index was 2.58.

With LTKTREMGREKCHQYWPAERSARY [L4T] as the variant, how does the protein stability index read?
Its protein stability index is 2.77.

With LTKWREMGREKCHQYWPAERSARY [L4W] as the variant, how does the protein stability index read?
The protein stability index was 2.12.

Which protein stability index does the source give for LTKMREMGREKCHQYWPAERSARY [L4M] here?
Its protein stability index is 2.65.

For LTKCREMGREKCHQYWPAERSARY [L4C], which protein stability index is on record?
The protein stability index was 2.12.

With LTKLREMGREKEHQYWPAERSARY [C12E] as the variant, how does the protein stability index read?
Its protein stability index is 3.11.

With LTKLREMGREKFHQYWPAERSARY [C12F] as the variant, how does the protein stability index read?
Its protein stability index is 2.58.

With LTKLREMGREKDHQYWPAERSARY [C12D] as the variant, how does the protein stability index read?
The protein stability index was 3.48.

For LTKLREMGREKAHQYWPAERSARY [C12A], which protein stability index is on record?
Its protein stability index is 3.2.

For LTKLREMDREKCHQYWPAERSARY [G8D], which protein stability index is on record?
Its protein stability index is 3.22.

With LTKLREMQREKCHQYWPAERSARY [G8Q] as the variant, how does the protein stability index read?
Its protein stability index is 3.13.

Which protein stability index does the source give for LTKLREMVREKCHQYWPAERSARY [G8V] here?
The protein stability index was 2.58.

For LTKLREMYREKCHQYWPAERSARY [G8Y], which protein stability index is on record?
The protein stability index was 2.03.

For LTKLREMWREKCHQYWPAERSARY [G8W], which protein stability index is on record?
The protein stability index was 1.85.

Which protein stability index does the source give for LTKLREMRREKCHQYWPAERSARY [G8R] here?
Its protein stability index is 2.53.

Which protein stability index does the source give for LTKLREMMREKCHQYWPAERSARY [G8M] here?
The protein stability index was 2.07.

For LTKLREMAREKCHQYWPAERSARY [G8A], which protein stability index is on record?
The protein stability index was 2.02.

Which protein stability index does the source give for LTKLREMSREKCHQYWPAERSARY [G8S] here?
The protein stability index was 1.94.

Which protein stability index does the source give for LTKLREMPREKCHQYWPAERSARY [G8P] here?
The protein stability index was 2.44.

Which protein stability index does the source give for LTKLREMKREKCHQYWPAERSARY [G8K] here?
The protein stability index was 2.04.

For LTKLREMCREKCHQYWPAERSARY [G8C], which protein stability index is on record?
The protein stability index was 2.39.

Which protein stability index does the source give for LTKLREMIREKCHQYWPAERSARY [G8I] here?
Its protein stability index is 1.29.

Which protein stability index does the source give for LTKLREMTREKCHQYWPAERSARY [G8T] here?
Its protein stability index is 2.95.

For LTKLREMNREKCHQYWPAERSARY [G8N], which protein stability index is on record?
The protein stability index was 2.29.

For LTKLREMEREKCHQYWPAERSARY [G8E], which protein stability index is on record?
Its protein stability index is 2.65.

Which protein stability index does the source give for LTKLREMLREKCHQYWPAERSARY [G8L] here?
The protein stability index was 1.67.

For LTKLREMFREKCHQYWPAERSARY [G8F], which protein stability index is on record?
The protein stability index was 1.73.

Which protein stability index does the source give for LTKLREMHREKCHQYWPAERSARY [G8H] here?
The protein stability index was 1.93.

For LTMLREMGREKCHQYWPAERSARY [K3M], which protein stability index is on record?
Its protein stability index is 2.41.

For LTNLREMGREKCHQYWPAERSARY [K3N], which protein stability index is on record?
Its protein stability index is 3.09.

For LTFLREMGREKCHQYWPAERSARY [K3F], which protein stability index is on record?
The protein stability index was 2.4.

For LTELREMGREKCHQYWPAERSARY [K3E], which protein stability index is on record?
Its protein stability index is 3.3.

For LTTLREMGREKCHQYWPAERSARY [K3T], which protein stability index is on record?
The protein stability index was 2.63.

Which protein stability index does the source give for LTLLREMGREKCHQYWPAERSARY [K3L] here?
The protein stability index was 2.21.

For LTSLREMGREKCHQYWPAERSARY [K3S], which protein stability index is on record?
The protein stability index was 2.73.

Which protein stability index does the source give for LTGLREMGREKCHQYWPAERSARY [K3G] here?
The protein stability index was 2.64.

For LTHLREMGREKCHQYWPAERSARY [K3H], which protein stability index is on record?
The protein stability index was 2.41.

Which protein stability index does the source give for LTDLREMGREKCHQYWPAERSARY [K3D] here?
Its protein stability index is 2.9.

For LTYLREMGREKCHQYWPAERSARY [K3Y], which protein stability index is on record?
The protein stability index was 2.44.

Which protein stability index does the source give for LTWLREMGREKCHQYWPAERSARY [K3W] here?
Its protein stability index is 1.88.

For LTVLREMGREKCHQYWPAERSARY [K3V], which protein stability index is on record?
The protein stability index was 1.92.

Which protein stability index does the source give for LTPLREMGREKCHQYWPAERSARY [K3P] here?
Its protein stability index is 2.66.

For LTILREMGREKCHQYWPAERSARY [K3I], which protein stability index is on record?
Its protein stability index is 2.08.

For LTQLREMGREKCHQYWPAERSARY [K3Q], which protein stability index is on record?
The protein stability index was 2.33.

With LTRLREMGREKCHQYWPAERSARY [K3R] as the variant, how does the protein stability index read?
The protein stability index was 2.43.

For LTALREMGREKCHQYWPAERSARY [K3A], which protein stability index is on record?
The protein stability index was 2.7.

With LTCLREMGREKCHQYWPAERSARY [K3C] as the variant, how does the protein stability index read?
Its protein stability index is 2.34.

With LPKLREMGREKCHQYWPAERSARY [T2P] as the variant, how does the protein stability index read?
Its protein stability index is 2.53.

With LNKLREMGREKCHQYWPAERSARY [T2N] as the variant, how does the protein stability index read?
The protein stability index was 2.29.

For LRKLREMGREKCHQYWPAERSARY [T2R], which protein stability index is on record?
Its protein stability index is 2.3.

Which protein stability index does the source give for LVKLREMGREKCHQYWPAERSARY [T2V] here?
Its protein stability index is 1.99.

With LSKLREMGREKCHQYWPAERSARY [T2S] as the variant, how does the protein stability index read?
The protein stability index was 2.16.

For LMKLREMGREKCHQYWPAERSARY [T2M], which protein stability index is on record?
Its protein stability index is 2.29.

For LKKLREMGREKCHQYWPAERSARY [T2K], which protein stability index is on record?
Its protein stability index is 2.92.

Which protein stability index does the source give for LQKLREMGREKCHQYWPAERSARY [T2Q] here?
Its protein stability index is 2.95.

For LWKLREMGREKCHQYWPAERSARY [T2W], which protein stability index is on record?
The protein stability index was 1.78.

With LYKLREMGREKCHQYWPAERSARY [T2Y] as the variant, how does the protein stability index read?
Its protein stability index is 1.97.

With LIKLREMGREKCHQYWPAERSARY [T2I] as the variant, how does the protein stability index read?
Its protein stability index is 2.22.

With LLKLREMGREKCHQYWPAERSARY [T2L] as the variant, how does the protein stability index read?
The protein stability index was 2.15.

With LHKLREMGREKCHQYWPAERSARY [T2H] as the variant, how does the protein stability index read?
The protein stability index was 2.25.

With LTKLREMGREDCHQYWPAERSARY [K11D] as the variant, how does the protein stability index read?
Its protein stability index is 3.21.

Which protein stability index does the source give for LTKLREMGREFCHQYWPAERSARY [K11F] here?
Its protein stability index is 2.14.

Which protein stability index does the source give for LTKLREMGREACHQYWPAERSARY [K11A] here?
The protein stability index was 3.23.

For LTKLREMGRENCHQYWPAERSARY [K11N], which protein stability index is on record?
The protein stability index was 2.74.

Which protein stability index does the source give for LTKLREMGREMCHQYWPAERSARY [K11M] here?
The protein stability index was 2.64.

Which protein stability index does the source give for LTKLREMGRESCHQYWPAERSARY [K11S] here?
Its protein stability index is 2.4.

With LTKLREMGREECHQYWPAERSARY [K11E] as the variant, how does the protein stability index read?
The protein stability index was 3.17.

For LTKLREMGRETCHQYWPAERSARY [K11T], which protein stability index is on record?
Its protein stability index is 2.5.

For LTKLREMGREPCHQYWPAERSARY [K11P], which protein stability index is on record?
The protein stability index was 2.6.

For LTKLREMGREICHQYWPAERSARY [K11I], which protein stability index is on record?
The protein stability index was 2.53.

For LTKLREMGREHCHQYWPAERSARY [K11H], which protein stability index is on record?
The protein stability index was 2.4.

Which protein stability index does the source give for LTKLREMGREVCHQYWPAERSARY [K11V] here?
The protein stability index was 2.53.

Which protein stability index does the source give for LTKLREMGREWCHQYWPAERSARY [K11W] here?
Its protein stability index is 1.89.

With LTKLREMGREYCHQYWPAERSARY [K11Y] as the variant, how does the protein stability index read?
Its protein stability index is 2.39.

For LTKLREMGRELCHQYWPAERSARY [K11L], which protein stability index is on record?
The protein stability index was 2.21.

For LTKLREMGREGCHQYWPAERSARY [K11G], which protein stability index is on record?
Its protein stability index is 2.61.

For LTKLREMGRERCHQYWPAERSARY [K11R], which protein stability index is on record?
The protein stability index was 2.26.

For LTKLREMGRECCHQYWPAERSARY [K11C], which protein stability index is on record?
Its protein stability index is 2.34.

Which protein stability index does the source give for LTKLREMGREQCHQYWPAERSARY [K11Q] here?
The protein stability index was 2.44.

Which protein stability index does the source give for LTKLREMGVEKCHQYWPAERSARY [R9V] here?
The protein stability index was 1.92.
